The labels stand for the following.
B1: OR4K15 (parent)
chain: GUUAACGGUCAUAGGCCAUGGAAACUAGGAGCACCAUUUCGCUGCCAGUGAAGAAAUGAACAAAGAAAAUCUGGGCCAGGCAGGCAUCAAAAGAAAUAGUCUUGCGCUCAACCAGAAAGUCUGUAAUCAUUUUAAGGGUA

Among the data in the RNAGym collection of RNA variant scans (doi:10.7554/elife.90254) are self-cleavage values, retold here.

The variants in this series derive from B1. The series can be described thus: self-cleavage, relative activity (ratio to wild type); higher = more cleavage; in vitro, sequencing; the parent is a self-cleaving ribozyme.
In the case of U124C A125U, the self-cleavage was found to be 1.37.
As for C121A A126G, the self-cleavage was determined as 1.78.
Regarding A129G A140G, the self-cleavage was determined as 1.24.
The figure for U131A is 1.05; for U131C it is 0.71.
U131G: the self-cleavage was found to be 0.76.
Turning to A134U A135U, the self-cleavage turned out to be 1.42.
As to U122A A140G, the self-cleavage was found to be 1.17.
Regarding U122A C128A, the self-cleavage is 1.32.
A125G A129G: the self-cleavage was 0.41.
A134G: the self-cleavage stood at 1.15.
As to A134U, the self-cleavage amounted to 1.26.
As for A134C, the self-cleavage was found to be 1.35.
For the variant U122G G137A, the self-cleavage amounted to 2.2.
In the case of U120G U122C, the self-cleavage stood at 1.08.
Take A125G U131C: the self-cleavage came to 0.2.
As to U132C A134U, the self-cleavage turned out to be 1.49.
With U127A U133C, the self-cleavage came to 2.29.
Turning to A134G A135U, the self-cleavage stood at 0.3.
For the variant A134G A135C, the self-cleavage worked out at 1.54.
Take U124A A126G: the self-cleavage stood at 0.76.
In the case of G138C, the self-cleavage is 1.73.
For the variant G138A, the self-cleavage was found to be 0.93.
Under G138U stands 1.69; under A126G A140G, 1.28; under A126G A140U, 1.58.
For the variant U120A U131C, the self-cleavage worked out at 1.22.
For the variant A135G G137A, the self-cleavage came out at 0.09.
The figure for U130C U133A is 2.08; for U124C G137C it is 0.78.
For the variant U120C U131A, the self-cleavage worked out at 0.52.
On to U132C U139C, for which the self-cleavage came out at 1.81.
The figure for U124A U132G is 0.61.
As to C121U U130C, the self-cleavage is 0.92.
Under U120C U122C stands 0.32; under U120A U130C, 1.78; under A125U C128U, 1.62.
Turning to A126U G137A, the self-cleavage came to 1.21.
A125U U133C: the self-cleavage was 2.54.
Turning to U131A U133A, the self-cleavage was 0.95.
For the variant U130C U139C, the self-cleavage is 1.09.
On to U124C A140U, for which the self-cleavage was found to be 1.14.
Consider U124C U132G, for which the self-cleavage worked out at 0.76.
Turning to A125U U132C, the self-cleavage worked out at 1.97.
As to A135C, the self-cleavage came to 0.69.
Under A135G stands 1.14; under A135U, 1.47; under U120C U132A, 1.42.
For U120C U132C, the self-cleavage was 0.85.
The figure for G123U G136A is 2.35; for U122G A129G it is 1.33.
The figure for U122C A129G is 0.46.
Consider U127C A140G, for which the self-cleavage was determined as 0.73.
In the case of C128U, the self-cleavage came out at 0.85.
As for C128G, the self-cleavage came out at 0.45.
With C128A, the self-cleavage is 0.84.
Regarding U139C A140G, the self-cleavage was 1.57.
As to U131C U133A, the self-cleavage is 0.91.
Under U133C A135G stands 0.03; under U127C A134G, 1.09; under U122A A125G, 0.55.
The figure for A135G A140G is 0.95; for U122C U130C it is 0.64.
Under A126G U133C stands 1.2; under G119A U132C, 2.46.
As for A126G G136A, the self-cleavage was found to be 1.4.
With U120A U133C, the self-cleavage was determined as 1.41.
For the variant A118U U127A, the self-cleavage was determined as 0.97.
The figure for A125G G137U is 0.98; for A126C U127C it is 0.21; for U120C A140G it is 1.07.
U130C U132A: the self-cleavage was determined as 1.4.
Take U130C U132C: the self-cleavage is 1.17.
Under A118U A135C stands 0.3; under A126U, 0.78.
As to A126C, the self-cleavage is 0.52.
Turning to A126G, the self-cleavage was 0.84.
A126G U131C: the self-cleavage was determined as 1.14.
G119A U139C: the self-cleavage was 2.96.
The figure for A118U is 0.61; for A118U U131C it is 0.37; for U124A U131C it is 0.36.
Under U131A G138C stands 1.83.
With U127A A134U, the self-cleavage amounted to 1.36.
The figure for U127A A134G is 2.3; for U127C U132C it is 0.86.
Under U127C U132G stands 1.62; under A126U U130C, 1.08; under U139G A140U, 1.51.
As for A126G U130C, the self-cleavage turned out to be 0.61.
The figure for A126G U130G is 1.19.
For the variant U124C U139C, the self-cleavage turned out to be 0.91.
Take A129G G137U: the self-cleavage was determined as 1.7.
The figure for A129G G137A is 0.54; for A118U U132C it is 0.4.
Turning to C128U U131C, the self-cleavage is 1.17.
As to U120C C128U, the self-cleavage worked out at 0.84.
Under U132A stands 1.53; under U132C, 1.05; under U132G, 0.89.
For A125G U130C, the self-cleavage was found to be 0.53.
The figure for G123A A129C is 0.92; for A118U A129G it is 0.85; for U122C A140C it is 1.25.
For U132C A135U, the self-cleavage was found to be 2.17.
On to U124C G138C, for which the self-cleavage was determined as 1.31.
Take A118G U139C: the self-cleavage stood at 1.43.
For A118G U139A, the self-cleavage was found to be 0.92.
On to C121U U131C, for which the self-cleavage is 2.02.
U127A U130C: the self-cleavage is 0.43.
On to U131A A134U, for which the self-cleavage amounted to 0.77.
Turning to C121A U130C, the self-cleavage turned out to be 1.87.
Under U120C U124C stands 0.34; under A118U U124C, 0.45; under C121A A140G, 1.61.
In the case of U120C U127A, the self-cleavage was 0.21.
With U122A U131C, the self-cleavage is 0.34.
As to U122A U131G, the self-cleavage turned out to be 0.73.
As to U122A A135U, the self-cleavage was found to be 1.
For the variant U131C U139A, the self-cleavage turned out to be 1.84.
For U131C U139C, the self-cleavage is 0.46.
As to A126G U132A, the self-cleavage was 0.69.
Under U130A A140G stands 1.02.
Turning to A129G U132C, the self-cleavage was 1.16.
As for U120C A129U, the self-cleavage is 0.78.
Under A126G U139C stands 1.19; under A125U U130C, 1.66; under U122C A126G, 0.76.
For U120C A126G, the self-cleavage was 0.27.
In the case of U120C A135G, the self-cleavage came out at 1.03.
Turning to U120C A135U, the self-cleavage stood at 0.85.
U130C A135G: the self-cleavage is 1.89.
For U122C G136U, the self-cleavage came out at 1.86.
With U122A U124A, the self-cleavage worked out at 0.14.
As for U122A U127C, the self-cleavage was 0.98.
Regarding U132A U139C, the self-cleavage was found to be 1.56.
As for U120C A134G, the self-cleavage is 1.3.
As for U122A A126G, the self-cleavage was 0.67.
Consider C121U A135G, for which the self-cleavage is 2.01.
Regarding G123C A135G, the self-cleavage was found to be 0.78.
For U132C U133C, the self-cleavage was 1.1.
For A126C U132C, the self-cleavage amounted to 0.5.
As to U120C U139G, the self-cleavage worked out at 1.36.
U120C U139A: the self-cleavage turned out to be 0.85.
A125U A135G: the self-cleavage was 0.55.
Under A118U U120C stands 0.08; under U122C A135C, 0.54.
Regarding C128U U130C, the self-cleavage is 0.55.
For A125G G138C, the self-cleavage turned out to be 0.83.
Under A125G G138A stands 0.47.
For U120C U130C, the self-cleavage was found to be 0.3.
Under U122C G137C stands 1.67.
For the variant C121A U127C, the self-cleavage was 0.2.
The figure for U124A is 0.69.
U124G: the self-cleavage was 0.98.
For the variant U124C, the self-cleavage amounted to 0.62.
With G119A A129U, the self-cleavage turned out to be 0.67.
Regarding U127C U130C, the self-cleavage is 0.69.
The figure for U127A U139C is 2.29; for U122C U139C it is 0.78.
Regarding G123U, the self-cleavage came to 1.59.
Under G123A stands 1.06; under G123C, 1.16; under C121A U122C, 1.62.
Consider U124C A134G, for which the self-cleavage amounted to 1.11.
Consider U122A U130C, for which the self-cleavage is 0.8.
For U127C A129G, the self-cleavage stood at 0.46.
Turning to C128U A140U, the self-cleavage is 2.45.
The figure for U133C A134G is 0.26; for U127C A135U it is 0.65.
In the case of U130C, the self-cleavage came to 0.76.
Consider U130G, for which the self-cleavage was 1.03.
On to U130A, for which the self-cleavage was determined as 0.92.
As to A118U U122C, the self-cleavage worked out at 0.89.
Under U122A U139C stands 0.94; under U127A C128U, 1.78; under C121A, 2.65.
The figure for C121U is 1.65; for U120G U130C it is 1.46.
Under A125G stands 0.56; under A125C, 0.46; under A125U, 1.81.
In the case of U122C U127A, the self-cleavage amounted to 2.22.
Under G138A A140U stands 1.08; under U127A U132C, 1.55.
For G137A, the self-cleavage is 1.12.
For the variant G137C, the self-cleavage came to 1.82.
For the variant G137U, the self-cleavage is 2.05.
Consider U127A A135U, for which the self-cleavage is 2.12.
Take U127A A135G: the self-cleavage stood at 2.31.
Take A129G U130A: the self-cleavage came out at 1.41.
As for A129G U130C, the self-cleavage turned out to be 1.73.
Consider U131C G136A, for which the self-cleavage was 0.88.
Consider U124A U130C, for which the self-cleavage amounted to 0.1.
Turning to U124A A125G, the self-cleavage stood at 0.91.
Under U132A A140U stands 0.14.
Turning to U132C A140U, the self-cleavage came to 1.65.
In the case of U132C A140G, the self-cleavage came out at 1.79.
The figure for U132A A135G is 0.87; for U124G A129C it is 0.33; for G119U U132C it is 1.41.
Regarding U124C A129G, the self-cleavage stood at 0.8.
For U124C A129U, the self-cleavage turned out to be 0.94.
As for U130C G138A, the self-cleavage is 1.41.
As for U127C G136A, the self-cleavage is 0.59.
Regarding U127A A129G, the self-cleavage is 2.49.
Under U131A U132A stands 0.14; under U130A U139A, 0.89.
Under A126G A129U stands 0.83; under U120A A129U, 0.57; under U122C A134G, 1.75.
On to A125G U133C, for which the self-cleavage was 1.09.
Under A118U U130G stands 0.71; under U124A A140G, 0.65.
Under U122A A134G stands 0.73.
